Article PMC6916501 (The Journal of Biological Chemistry, 2019)

Experiments:
[1] = target: T1, WT β-catenin_(41–49) peptide on HLA-A3 of T2A3 cells (Homo sapiens, HLA-A*03:01, UniProt P04439;P61769); assay: flow cytometry on cells; T2A3 cells pulsed with peptide and β2-microglobulin, stained with ~1 × 10^10 phage for 1 h on ice; anti-M13 and PE anti-rabbit; settings: partners not purified
T1 construct: HLA-A3 stably transfected in T2A3 cells; human β2-microglobulin (ProSpec) added at pulsing; β-catenin amino acids 41-49; also called WT peptide-pulsed T2A3 cells; copies: + +

[2] = target: T1, WT β-catenin_(41–49) peptide on HLA-A3 …; assay: flow cytometry on cells; T2A3 cells pulsed with peptide and β2-microglobulin, stained with 1 μg scFv in 100 μl for 1 h on ice; PE anti-DYKDDDDK; settings: one partner purified

B1: E10 phage clone (scFv displayed on M13 phage) (scFv, V domains shown)
VH: EVQLVESGGGLVQPGGSLRLSCAASGFNINNTYIHWVRQAPGKGLEWVASIYPTDGYTRYADSVKGRFTISADTSKNTAYLQMNSLRAEDTAVYYCSRTYYSYYSAMDVWGQGTLVTVSS
VL: DIQMTQSPSSLSASVGDRVTITCRASQDVNTAVAWYQQKPGKAPKLLIYSASFLYSGVPSRFSGSRSGTDFTLTISSLQPEDFATYYCQQSYYSPPTFGQGTKVEIK
notes: scFv from the first library on the humanized 4D5 framework (CDRs L3, H1, H2, H3 varied); source: phage display, amplified in SS320 E. coli with M13K07 helper phage
B1: no binding [1].

B2: E10 scFv with C-terminal FLAG tag (scFv, V domains shown)
VH: B1 VH
VL: B1 VL
notes: as the scFv of m19; source: E. coli, produced by AxioMx
B2: no binding [2].

B3: clone 7 phage clone (scFv displayed on M13 phage) (scFv, V domains shown)
VH: EVQLVESGGGLVQPGGSLRLSCAASGFNVWSYGIHWVRQAPGKGLEWVAGVTPDGSYTYYADSVKGRFTISADTSKNTAYLQMNSLRAEDTAVYYCSRSYGWAMDYWGQGTLVTVSS
VL: DIQMTQSPSSLSASVGDRVTITCRASQDVNTAVAWYQQKPGKAPKLLIYSASFLYSGVPSRFSGSRSGTDFTLTISSLQPEDFATYYCQQQYAYTPITFGQGTKVEIK
notes: scFv from the second library on the humanized 4D5 framework (CDRs L2, L3, H1, H2, H3 varied); also called cl; source: phage display, amplified in SS320 E. coli with M13K07 helper phage
B3: no binding [1].

B4: clone 7 scFv with C-terminal FLAG tag (scFv, V domains shown)
VH: B3 VH
VL: B3 VL
notes: as the scFv of m22; also called cl; source: E. coli, produced by AxioMx
B4: no binding [2].
